# B1: RSPO1-GFP (ligand, UniProt Q2MKA7 21-263, looked up)
# chain: SRGIKGKRQRRISAEGSQACAKGCELCSEVNGCLKCSPKLFILLERNDIRQVGVCLPSCPPGYFDARNPDMNKCIKCKIEHCEACFSHNFCTKCKEGLYLHKGRCYPACPEGSSAANGTMECSSPAQCEMSEWSPWGPCSKKQQLCGFRRGSEERTRRVLHAPVGDHAACSDTKETRRCTVRRVPCPEGQKRRKGGQGRRENANRNLARKESKEAGAGSRRRKGQQQQQQQGTVGPLTSAGPA
# notes: Used as conditioned medium; The order of the parts follows the printed name; also called R-spondin 1 GFP fusion; R-spondin; not shown: GFP
# How the values were obtained:
# [1] = molecular target: T1, ZNRF3 ΔRING (missing amino acids 293-334), stably expressed on HEK293 cells (human, UniProt Q9ULT6 56-936); test: FACS on HEK293 cells stably expressing ZNRF3 ΔRING
# T1 construct: No tag is stated for the cell line used in FACS; also called ZNRF3 lacking the RING domain
# T1 sequence: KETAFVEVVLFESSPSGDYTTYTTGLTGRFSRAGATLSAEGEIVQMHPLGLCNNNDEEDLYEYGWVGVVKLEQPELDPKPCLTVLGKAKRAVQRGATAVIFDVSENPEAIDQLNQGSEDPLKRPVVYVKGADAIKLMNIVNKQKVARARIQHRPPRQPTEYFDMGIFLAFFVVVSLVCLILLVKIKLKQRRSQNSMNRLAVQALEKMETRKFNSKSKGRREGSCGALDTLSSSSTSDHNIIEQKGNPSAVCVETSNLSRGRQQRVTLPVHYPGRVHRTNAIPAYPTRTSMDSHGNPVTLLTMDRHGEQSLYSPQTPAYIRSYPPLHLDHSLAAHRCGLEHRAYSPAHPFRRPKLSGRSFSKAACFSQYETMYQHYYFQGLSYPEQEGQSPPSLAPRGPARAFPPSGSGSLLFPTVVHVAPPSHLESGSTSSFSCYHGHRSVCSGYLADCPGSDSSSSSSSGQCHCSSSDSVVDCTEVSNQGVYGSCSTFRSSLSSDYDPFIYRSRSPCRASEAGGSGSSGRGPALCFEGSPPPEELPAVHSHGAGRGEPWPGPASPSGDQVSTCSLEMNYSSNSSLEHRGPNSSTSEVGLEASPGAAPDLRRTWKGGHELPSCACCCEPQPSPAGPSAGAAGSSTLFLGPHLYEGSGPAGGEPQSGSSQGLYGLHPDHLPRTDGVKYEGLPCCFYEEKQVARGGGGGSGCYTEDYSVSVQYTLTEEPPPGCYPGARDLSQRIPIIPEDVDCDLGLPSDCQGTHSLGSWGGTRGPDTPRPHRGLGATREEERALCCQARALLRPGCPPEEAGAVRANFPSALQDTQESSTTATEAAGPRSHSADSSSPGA
# [2] = molecular target: T2, Fc-ZNRF3 ECD (extracellular domain, amino acids 56-219 of SEQ ID NO: 1) (human, UniProt Q9ULT6 56-219); test: ELISA on Fc-ZNRF3 ECD
# T2 construct: The order of the parts follows the printed name 'Fc-ZNRF3 ECD'; also called purified ZNRF3 extracellular domain; not shown: Fc part
# T2 sequence: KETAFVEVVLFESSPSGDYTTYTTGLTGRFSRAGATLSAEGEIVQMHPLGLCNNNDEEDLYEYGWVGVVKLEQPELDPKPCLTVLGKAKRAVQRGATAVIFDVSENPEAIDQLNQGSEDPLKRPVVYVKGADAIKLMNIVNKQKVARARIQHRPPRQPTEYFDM
# RSPO1-GFP = molecular target: B1; test: cell-based binding assay: RSPO1-GFP conditioned medium for 1 hour on transfected HEK293 cells, immunofluorescence
# Experimental: (§1) Since ZNRF3 regulates the membrane level of Frizzled proteins, we tested whether R-spondin enhances Wnt signaling through inhibiting ZNRF3. […] To do so, the inventors transiently transfected HEK293 cells with N-terminal Myc-tagged FZD4 (Frizzled 4), or ZNRF3 ECD-TM, or ZNRF3 P103A ECD-TM, then incubated these cells with RSPO1-GFP conditioned medium for 1 hour. We determined the binding of RSPO1-GFP to Myc tagged proteins expressed on the cell surface using immunoflurorescence using anti-GFP and anti-Myc antibodies.
# [3] = molecular target: T3, N-terminal Myc-tagged FZD4 (Frizzled 4) (UniProt Q9ULV1 37-537, limits assumed); test: as above
# T3 construct: whole, on cells; On transiently transfected HEK293 cells; not shown: N-terminal Myc tag
# T3 sequence (looked up): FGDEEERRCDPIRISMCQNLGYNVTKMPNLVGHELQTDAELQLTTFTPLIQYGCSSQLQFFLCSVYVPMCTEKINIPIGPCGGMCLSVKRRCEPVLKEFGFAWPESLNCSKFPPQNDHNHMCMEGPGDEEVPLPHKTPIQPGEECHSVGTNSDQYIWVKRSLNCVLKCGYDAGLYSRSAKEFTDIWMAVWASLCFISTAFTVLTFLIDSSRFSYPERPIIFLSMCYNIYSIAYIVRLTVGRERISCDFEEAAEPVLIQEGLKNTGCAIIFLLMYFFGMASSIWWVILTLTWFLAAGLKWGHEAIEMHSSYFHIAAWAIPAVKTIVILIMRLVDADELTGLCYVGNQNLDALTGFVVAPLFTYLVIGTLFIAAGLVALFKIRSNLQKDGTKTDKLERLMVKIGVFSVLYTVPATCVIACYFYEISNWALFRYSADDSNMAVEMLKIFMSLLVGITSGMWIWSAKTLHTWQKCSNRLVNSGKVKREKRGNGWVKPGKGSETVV
# Experimental: as §1
Binder,binding result [1],binding result [2],binding result (RSPO1-GFP),binding result [3]
"Fab clone Ab2 (Fab, V domains shown, also called parental Ab2; ZNRF3 hFab) VH: EVQLVESGGGLVKPGGSLRLSCAASGFTFSDYGIHWVRQAPGKGLEWVGRIKSKTDGGITEYAAPVKGRFTISRDDSKNTLYLQMNSLKTEDTAVYYCARAIYYLEAFDVWGQGTLVTVSS VL: DIELTQPPSVSVSPGQTASITCSGDSLGSYYVHWYQQKPGQAPVLVIYRNKQRPSGIPERFSGSNSGNTATLTISGTQAEDEADYYCQTYDWMYSSRVFGGGTKLTVLG",binds,binds,,
"Fab clone Ab1 (Fab, V domains shown, Fab from phage display panning on Fc-ZNRF3 ECD; Light chain Lch-lambda3, heavy chain Hch-VH1B; the heavy chain entry carries C-terminal tags; also called ZNRF3 hFab) VH: QVQLVQSGAEVKKPGASVKVSCKASGYTFTSYHMHWVRQAPGQGLEWMGWINPYTGDTNYAQKFQGRVTMTRDTSISTAYMELSRLRSEDTAVYYCAREKVYMDIWGQGTLVTVSS VL: DIELTQPPSVSVSPGQTASITCSGDSIPSKYAHWYQQKPGQAPVLVIYGKSHRPSGIPERFSGSNSGNTATLTISGTQAEDEADYYCAAWDLLGDGWVFGGGTKLTVLG",binds,binds,,
"ZNRF3 P103A ECD-TM (receptor, not shown: small tags and cut ends, On transiently transfected HEK293 cells, N-terminally Myc-tagged) KETAFVEVVLFESSPSGDYTTYTTGLTGRFSRAGATLSAEGEIVQMHALGLCNNNDEEDLYEYGWVGVVKLEQPELDPKPCLTVLGKAKRAVQRGATAVIFDVSENPEAIDQLNQGSEDPLKRPVVYVKGADAIKLMNIVNKQKVARARIQHRPPRQPTEYFDMGIFLAFFVVVSLVCLILLVKIKLKQRRSQNSMNRLAV",,,no binding,
B1,,,,no binding

# Reference: patent US20180066067A1 (Novartis, published 2018)
